Results reported in paper PMC4163903.

System: ABD-B homeodomain (ABD-B HD) (Drosophila)
Experiment: EMSA

Which Kd does the source give for abd-A probe here?
The Kd was 5.48 nM.
